Experimental data as given in patent publication US20070093418A1 (Amgen, published 2007).

Columns and labels:
[1] = biological target: T1, Negative Control Peptibody 4883 (Homo sapiens (Human), UniProt P0DOX5 223-449 = IgG part); assay: ELISA on conditioned medium with C-terminal hAng-2 (aa 255-495, C-terminal 6xHis); O.D. 370; pCDNA3 vector-control medium as blank
Description: (§1) The binding epitope of anti-Ang-2 antibodies and peptibodies was determined by their ability to bind the three versions of human hAng-2 by ELISA according to the following protocol: a high-binding 96-well assay plate was coated with 100 μl of conditioned media per well, and incubated at 37° C. for 1 hour. Conditioned media was aspirated, and the plate was blocked with 200 μl per well of 5% BSA in PBS at room temperature for 1 hour. The blocking solution was then aspirated. […] The wells were washed 4 times with 200 μl of 0.1% Tween in PBS. 100 μl per well of HRP-conjugated goat anti-human IgG or goat anti-mouse IgG were added, and incubated at room temperature for 45 minutes. The wells were then washed with 200 μl of 0.1% Tween in PBS 4 times. 100 μl per well of TMB substrate was then added. O.D. was read at 370 nm.

Con4 (C) = biological target: T2, Con4 (C) (Homo sapiens (Human), UniProt P0DOX5 223-449 = IgG part); assay: ELISA on conditioned medium with N-terminal hAng-2 (aa 1-254, C-terminal 6xHis); O.D. 370; pCDNA3 vector-control medium as blank
T2 construct: also called TN8-Con4-C
Description: as §1

[2] = biological target: T1, Negative Control Peptibody 4883; assay: as above
Description: as §1

[3] = biological target: T3, Tie-2-Fc (R&D Systems, catalog number 313-TI) (human, UniProt Q02763 23-748); assay: as above
T3 construct: extracellular domain; bought; also called hTie2-Fc; Recombinant Human Tie-2-Fc Chimera; not shown: Fc of the bought chimera
Description: as §1

2xCon4 (C) 1K [4] = biological target: T4, 2xCon4 (C) 1K; assay: KinExA solution competition, 30 pM 2xCON4-C; soluble huAng-2 varied, competing with huAng-2 on beads
T4 construct: also called 2×Con4-C; 2×CON4-C (Pb5714)
From the text: (§2) Reacti-Gel 6× beads (Pierce, Rockford, Ill.) were pre-coated with huAng-2 and blocked with BSA. […] The amount of the bead-bound peptibody was quantified by fluorescent (Cy5) labeled goat anti-human-Fc antibody (Jackson Immuno Research, West Grove, Pa.). The binding signal is proportional to the concentration of free peptibody at equilibrium.
(§3) The dissociation equilibrium constant (KD) was obtained from nonlinear regression of the competition curves using a dual-curve one-site homogeneous binding model (KinE×™ software).

2xCon4 (C) 1K [5] = biological target: T4, 2xCon4 (C) 1K; assay: KinExA solution competition, 10 pM 2xCON4-C; soluble huAng-2 varied, competing with huAng-2 on beads
From the text: as §2, §3

B1: C-term of hAng2 (aa 255-495) (ligand)
chain: VNNLLTMMSTSNSKDPTVAKEEQISFRDCAEVFKSGHTTNGIYTLTFPNSTEEIKAYCDMEAGGGGWTIIQRREDGSVDFQRTWKEYKVGFGNPSGEYWLGNEFVSQLTNQQRYVLKIHLKDWEGNEAYSLYEHFYLSSEELNYRIHLKGLTGTAGKISSISQPGNDFSTKDGDNDKCICKCSQMLTGGWWFDACGPSNLNGMYYPQRQNTNKFNGIKWYYWKGSGYSLKATTMMIRPADFHHHHHH
notes: also called C-terminal (amino acids 255-495) human Ang-2
- binding result [1]: no binding (tested: 1 µg/ml (single concentration))

B2: N-term hAng2 (aa 1-254) (ligand)
chain: YNNFRKSMDSIGKKQYQVQHGSCSYTFLLPEMDNCRSSSSPYVSNAVQRDAPLEYDDSVQRLQVLENIMENNTQWLMKLENYIQDNMKKEMVEIQQNAVQNQTAVMIEIGTNLLNQTAEQTRKLTDVEAQVLNQTTRLELQLLEHSLSTNKLEKQILDQTSEINKLQDKNSFLEKKVLAMEDKHIIQLQSIKEEKDQLQVLVSKQNSIIEELEKKIVTATVNNSVLQKQQHDLMETHHHHHH
notes: also called N-terminal (amino acids 1-254) human Ang-2
- binding result (Con4 (C)): no binding (tested: 1 µg/ml (single concentration))
- binding result [2]: no binding (tested: 1 µg/ml (single concentration))
- binding result [3]: no binding (tested: 1 µg/ml (single concentration))

B3: human angiopoietin-2 (Ang-2) (ligand, UniProt O15123 19-496, looked up)
chain: YNNFRKSMDSIGKKQYQVQHGSCSYTFLLPEMDNCRSSSSPYVSNAVQRDAPLEYDDSVQRLQVLENIMENNTQWLMKLENYIQDNMKKEMVEIQQNAVQNQTAVMIEIGTNLLNQTAEQTRKLTDVEAQVLNQTTRLELQLLEHSLSTNKLEKQILDQTSEINKLQDKNSFLEKKVLAMEDKHIIQLQSIKEEKDQLQVLVSKQNSIIEELEKKIVTATVNNSVLQKQQHDLMETVNNLLTMMSTSNSAKDPTVAKEEQISFRDCAEVFKSGHTTNGIYTLTFPNSTEEIKAYCDMEAGGGGWTIIQRREDGSVDFQRTWKEYKVGFGNPSGEYWLGNEFVSQLTNQQRYVLKIHLKDWEGNEAYSLYEHFYLSSEELNYRIHLKGLTGTAGKISSISQPGNDFSTKDGDNDKCICKCSQMLTGGWWFDACGPSNLNGMYYPQRQNTNKFNGIKWYYWKGSGYSLKATTMMIRPADF
notes: Several preparations are used (R&D Systems protein, biotinylated R&D protein, 293T conditioned media); also called hAng-2; huAng-2
- IC50 (read off the curve) (2xCon4 (C) 1K [4]): ~40 pM
- IC50 (read off the curve) (2xCon4 (C) 1K [5]): ~10 pM
